The Kd is the free concentration of one partner at which half of the binding sites on the other are occupied at equilibrium, for simple one-to-one binding. Read a high Kd as lower affinity. The IC50 is the concentration that gives 50% inhibition. High values mean a need for much substance, low ones inhibition by little substance. As a reminder, the Km is the substrate concentration at which the rate is half of its maximum. As a reminder, the kcat is the number of substrate molecules converted per active site and unit of time at saturation. What is called kcat/Km is the second-order rate constant that governs catalysis at low substrate concentration. One may read the stoichiometry N as the number of molecules, sites or subunits per partner or assembly.

Values joined by “and” are separate entries in the source; they are usually repeats but may differ in a detail not shown here. Equal entries are not always repeated.

Data set [1] has as its target T1, TgCBS (Toxoplasma gondii, UniProt A0A125YSJ9).
T1 construct: gene TGME49_259180; mainly dimer with some tetramer; no heme, PLP at Lys56
T1 sequence (A0A125YSJ9 1-514): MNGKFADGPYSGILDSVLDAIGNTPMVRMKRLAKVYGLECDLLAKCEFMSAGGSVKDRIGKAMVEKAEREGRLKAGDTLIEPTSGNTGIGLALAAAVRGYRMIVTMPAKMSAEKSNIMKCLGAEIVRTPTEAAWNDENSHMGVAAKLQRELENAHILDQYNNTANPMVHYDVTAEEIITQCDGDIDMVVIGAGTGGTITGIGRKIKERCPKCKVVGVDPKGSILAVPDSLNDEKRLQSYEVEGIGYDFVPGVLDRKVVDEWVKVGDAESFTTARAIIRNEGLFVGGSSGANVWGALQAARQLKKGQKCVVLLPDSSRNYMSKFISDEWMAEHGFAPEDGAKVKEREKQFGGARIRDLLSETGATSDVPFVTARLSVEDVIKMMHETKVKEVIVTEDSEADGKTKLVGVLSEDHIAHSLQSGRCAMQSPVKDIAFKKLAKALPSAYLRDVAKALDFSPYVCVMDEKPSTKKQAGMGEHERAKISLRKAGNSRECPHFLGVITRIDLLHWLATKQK
Put plainly: intrinsic fluorescence titration of apo-enzyme. The format is binding.

Data set [2] addresses T1, TgCBS. Put plainly: CD spectroscopy (aminoacrylate formation). The format is binding. Conditions: 3 mM; 20 mM sodium phosphate pH 8.5; 25 °C.
The target in data set [3] is T1, TgCBS. Nature of the data set: lead acetate H2S assay, substrate competition. The format is biochemical. From the text: lead acetate H2S assay, substrate competition on TgCBS | The IC50 value, i.e. the concentration of L-Ser at which the H2S production
Data set [4] relates to N[C@@H](CCSC[C@H](N)C(=O)O)C(=O)O. Put plainly: purified protein. Conditions: CBS coupled-assay conditions (MBP buffer pH 9; 37 °C).
Data set [5] concerns N[C@@H](CO)C(=O)O. Put plainly: purified protein. Conditions: CBS coupled-assay conditions (MBP buffer pH 9; 37 °C).
In data set [6] the target is T1, TgCBS. Nature of the data set: CD spectroscopy (external aldimine formation). The format is binding. Conditions: 25 mM; 20 mM sodium phosphate pH 8.5; 25 °C; substrate analog.
Data set [7] has as its target T1, TgCBS. Nature of the data set: lead acetate H2S assay, biphasic fit. The format is biochemical. As to conditions: substrate inhibition in beta-elimination; L-Cys alone; 50 mM Hepes pH 7.4; 37 °C; PLP 20 µM. From the text: (§1) lead acetate H2S assay, biphasic fit on TgCBS
Substrate in data set [8]: CC(=O)OC[C@H](N)C(=O)O
Put plainly: purified protein. The format is biochemical, Toxoplasma gondii. Conditions: co-substrate L-Hcys, MBP buffer pH 9, 37 °C, PLP 20 µM.

Substrate in data set [9]: N[C@@H](CCS)C(=O)O
Put plainly: purified protein. The format is biochemical, Toxoplasma gondii. Conditions: co-substrate L-Ser, MBP buffer pH 9, 37 °C, PLP 20 µM.

Substrate in data set [10]: N[C@@H](CO)C(=O)O
Put plainly: purified protein. The format is biochemical, Toxoplasma gondii. Conditions: co-substrate L-Hcys, MBP buffer pH 9, 37 °C, PLP 20 µM.

Substrate in data set [11]: N[C@@H](CS)C(=O)O
Put plainly: lead acetate H2S assay, biphasic fit. Conditions: beta-elimination of L-Cys alone, site 1, 50 mM Hepes pH 7.4, 37 °C, PLP 20 µM. The format is biochemical, Toxoplasma gondii.
Excerpt: as §1

Data set [12] deals with the molecule itself. Nature of the data set: SEC; Superdex 200 10/30 GL, TgCBS at 1 mg/mL, 20 mM sodium phosphate pH 8.5, 150 mM NaCl, 0.1 mM DTT; masses from a calibration curve of standard proteins. In general terms: Size exclusion chromatography separates by hydrodynamic size, large species first.

For the molecule `Cc1ncc(COP(=O)(O)O)c(C=O)c1O` [PLP], binding in data set [1] was put at a Kd of 0.00013 ± 1e-05 mM.

`NC(CSCC(N)C(=O)O)C(=O)O` (stereo not shown) [lanthionine]: the “CD spectroscopy (aminoacrylate formation)” value in [2] was “Binding of lanthionine to the enzyme”.

In the case of `N[C@@H](CO)C(=O)O` [L-Ser], the IC50 in [3] turned out to be 6.7 ± 1.3 mM.

In the case of “recombinant CBL (Corynebacterium diphtheriae NCTC 13129)”, the values for the Km in [4] and in data set [5] were 800 ± 100 µM and 7500 ± 1400 µM, respectively. The kcat in data set [4] came to 93 ± 2 s⁻¹; in data set [5] it was 1.2 ± 0.2 s⁻¹.

On to `C[C@H](N)C(=O)O` [L-Ala], for which the “CD spectroscopy (external aldimine formation)” value in [6] is “Addition of the analog L-alanine (L-Ala) to TgCBS resulted in a shift”.

On to `N[C@@H](CS)C(=O)O` [L-Cys], for which the TgCBS in data set [7] is given as 36 ± 4 mM.

B1: TgCBS (Toxoplasma gondii ME49) (protein)
chain: T1 sequence (A0A125YSJ9 1-514)
notes: mainly dimer with some tetramer; no heme, PLP at Lys56
Turning to B1, the Michaelis-Menten constant (Km) in data set [8] was determined as 1300 ± 200 µM; in data set [9], 230 ± 30 µM; in data set [10], 420 ± 40 µM; in [11] it was 4700 ± 900 µM. The catalytic constant (kcat) in data set [8] worked out at 5.5 ± 0.1 s⁻¹; in [9], 6.3 ± 0.4 s⁻¹; in data set [10], 6.3 ± 0.4 s⁻¹; in data set [11] it was 2.6 ± 0.3 s⁻¹. Besides, the catalytic efficiency (kcat/Km) in data set [8] came out at 4200 ± 700 M⁻¹ s⁻¹; in [9] it was 27000 ± 5000 M⁻¹ s⁻¹; in [10], 15000 ± 2000 M⁻¹ s⁻¹; in data set [11], 600 ± 200 M⁻¹ s⁻¹.

B2: Cystathionine β-synthase from Toxoplasma gondii (enzyme, Toxoplasma gondii (strain ME49), UniProt A0A125YSJ9 1-514, looked up)
chain: T1 sequence (A0A125YSJ9 1-514)
modifications: PLP bound to active site Lys56 (internal aldimine)
notes: Cystathionine β-synthase, Toxoplasma gondii strain ME49, gene TGME49_259180 (ToxoDB), complete cDNA as a synthetic gene; 514 amino acids (55.8 kDa); Cloned into pET21a (NdeI/BamHI); Mainly a dimer in solution, with some higher-order oligomers (e.g. tetramer); also called TgCBS; T. gondii CBS; source: E. coli Rosetta (DE3), purified (Ni-sepharose)
For B2, the “stoichiometry N” value in [12] is 2 and 4.

The values above are taken from PMC7474069, “Cystathionine β-synthase is involved in cysteine biosynthesis and H2S generation in Toxoplasma gondii” (Scientific Reports, 2020).
